From paper PMC2553180

Tests used:
[1] = molecular target: previously unrecognized receptor on the RBC (receptor for PfRH5) (human (endogenous in erythrocytes)); experiment: other fluorescence titration; competition: 2 µM rhodamine-rRH5 with 25 µl packed RBC ghosts in PBS and increasing unlabeled rRH5 (0.1 to 400 µM), 2 h at RT, bound labeled rRH5 by spectrofluorimetry
[2] = molecular target: previously unrecognized receptor on the RBC (receptor for PfRH5) (human (endogenous in erythrocytes)); experiment: other fluorescence titration; […] fit for identical independent binding sites

In the case of “recombinant PfRH5 protein (rRH5), 143-aa fragment Asn-31 to Val-174, GST fusion (domain or fragment)”, the IC50 [1] is reported as 50 µM.
Substance “rhodamine-labeled rRH5 (domain or fragment)” has a Kd [2] of 12 µM.
